Assay results taken from patent publication US20180258158A1 (Bristol-Myers Squibb, published 2018).

Key:
[1] = molecular target: T1, mouse serum albumin (MSA), full length (mouse, UniProt P07724 25-608); assay: direct binding ELISA, coated MSA, anti-His-HRP; parameters: unit not given here
T1 construct: mature; Immobilized on CM5 chip (SPR) or coated on plates (ELISA); also called mouse albumin; murine serum albumin
Target sequence in this assay (P07724 25-608): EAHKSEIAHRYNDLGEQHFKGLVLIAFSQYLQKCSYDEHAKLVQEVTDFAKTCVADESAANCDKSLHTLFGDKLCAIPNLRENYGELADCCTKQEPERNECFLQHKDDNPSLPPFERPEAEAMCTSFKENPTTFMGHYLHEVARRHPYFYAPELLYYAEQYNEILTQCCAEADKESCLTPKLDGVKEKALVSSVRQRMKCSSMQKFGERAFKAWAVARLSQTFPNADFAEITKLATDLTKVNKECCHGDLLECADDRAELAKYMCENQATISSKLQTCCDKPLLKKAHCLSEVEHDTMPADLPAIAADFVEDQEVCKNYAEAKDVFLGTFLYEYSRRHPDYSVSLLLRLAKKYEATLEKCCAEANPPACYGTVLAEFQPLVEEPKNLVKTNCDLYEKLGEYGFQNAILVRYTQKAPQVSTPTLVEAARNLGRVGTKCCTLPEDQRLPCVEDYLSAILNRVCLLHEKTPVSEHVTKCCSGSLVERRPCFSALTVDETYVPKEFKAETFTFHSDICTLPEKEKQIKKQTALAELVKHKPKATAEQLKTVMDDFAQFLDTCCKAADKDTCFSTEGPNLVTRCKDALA

[2] = molecular target: T1, mouse serum albumin (MSA), full length; assay: SPR kinetics (Biacore, CM5): albumin immobilised, Adnectin concentration series as analyte, 37 C, 1:1 binding fit; curve Fc=3-1 [panel MSA]
Description: (§1) The SPR was conducted as follows. Full length human, mouse, rat and cynomolgus monkey serum albumin were immobilized on a Biacore T series CM5 chip at 15 ug/mL in 10 mM acetate buffer (pH 5.0) buffer using standard NHS/EDC coupling, to a surface density of approximately 1000-1100 RU. For off-rate measurements at 25° C., PKE Adnectins were applied as analytes at 500 nM in HBS-P+(0.01 M HEPES pH 7.4, 0.15 M NaCl, 0.005% v/v Surfactant P20) running buffer at a flow rate of 20ul/min for 120 s over the immobilized albumins, followed by 800 s for dissociation. […] Regeneration of the chip surface between cycles was accomplished with two 30 second pulses of 10 mM Glycine, pH 2.0. Kinetic traces of reference-subtracted sensorgrams were fit to a 1:1 binding model for affinity using the Biaevaluation software. Only the dissociation phase was fit for determination of off-rates.

[3] = molecular target: T2, human serum albumin (HSA), full length (human, UniProt P02768 25-609); assay: SPR off-rate, immobilized HSA, 500 nM Adnectin, 25 C
T2 construct: mature; Immobilized on CM5 chip (SPR) or coated on plates (ELISA)
Description: as §1, with “Measurements were conducted by SPR and ELISA. SPR” for “The SPR”, “length HSA or mouse” for “length human, mouse, rat and cynomolgus monkey serum”, “albumin was” for “albumin were”

[4] = molecular target: T2, human serum albumin (HSA), full length; assay: SPR, immobilized HSA, 500 nM Adnectin, 25 C
Description: as §1, with “Measurements were conducted by SPR and ELISA. SPR” for “The SPR”, “length HSA or mouse” for “length human, mouse, rat and cynomolgus monkey serum”, “albumin was” for “albumin were”

[5] = molecular target: T1, mouse serum albumin (MSA), full length; assay: SPR, immobilized MSA, 500 nM Adnectin, 25 C
Description: as §1, with “Measurements were conducted by SPR and ELISA. SPR” for “The SPR”, “length HSA or mouse” for “length human, mouse, rat and cynomolgus monkey serum”, “albumin was” for “albumin were”

[6] = molecular target: T2, human serum albumin (HSA), full length; assay: SPR kinetics, immobilized albumin, 1:1 fit, 37 C
Description: as §1

[7] = molecular target: T1, mouse serum albumin (MSA), full length; assay: SPR kinetics, immobilized albumin, 1:1 fit, 37 C
Description: as §1

[8] = molecular target: T3, rat serum albumin (rat SA), full length (rat, UniProt P02770 25-608); assay: SPR kinetics, immobilized albumin, 1:1 fit, 37 C
T3 construct: mature; Immobilized on CM5 chip (SPR); also called RSA
Description: as §1

[9] = molecular target: T4, cynomolgus monkey serum albumin (cynoSA), full length (cynomolgus monkey, UniProt A2V9Z4 25-608); assay: SPR kinetics, immobilized albumin, 1:1 fit, 37 C
T4 construct: mature; Immobilized on CM5 chip (SPR); the cynoSA experiment used a different Biacore chip; also called CySA
Description: as §1

[10] = molecular target: T1, mouse serum albumin (MSA), full length; assay: SPR off-rate, immobilized MSA, 500 nM Adnectin, 25 C
Description: as §1, with “Measurements were conducted by SPR and ELISA. SPR” for “The SPR”, “length HSA or mouse” for “length human, mouse, rat and cynomolgus monkey serum”, “albumin was” for “albumin were”

[11] = molecular target: T2, human serum albumin (HSA), full length; assay: SPR kinetics (Biacore, CM5): albumin immobilised, Adnectin concentration series as analyte, 37 C, 1:1 binding fit; curve Fc=2-1 [panel HSA]
Description: as §1

[12] = molecular target: T2, human serum albumin (HSA), full length; assay: not stated; upper end of the range 3-6 nM
[13] = molecular target: T3, rat serum albumin (rat SA), full length; assay: SPR kinetics (Biacore, CM5): albumin immobilised, Adnectin concentration series as analyte, 37 C, 1:1 binding fit; curve Fc=4-1 [panel Rat SA]
Description: as §1

[14] = molecular target: T4, cynomolgus monkey serum albumin …; assay: SPR kinetics (Biacore, CM5): ligand '15ug/ml CynoSA in Acetate 5.0' immobilised, Adnectin concentration series as analyte, 37 C, 1:1 binding fit; curve Fc=2-1 [panel Cyno SA]
Description: as §1

[15] = molecular target: T2, human serum albumin (HSA), full length; assay: not stated; lower end of the range 3-6 nM
[16] = molecular target: T1, mouse serum albumin (MSA), full length; assay: SPR off-rate ratio to parent ADX_7016_A01, MSA, 25 C
Description: as §1, with “Measurements were conducted by SPR and ELISA. SPR” for “The SPR”, “length HSA or mouse” for “length human, mouse, rat and cynomolgus monkey serum”, “albumin was” for “albumin were”

[17] = molecular target: T1, mouse serum albumin (MSA), full length; assay: direct binding ELISA, coated MSA, anti-His-HRP
Description: Direct binding ELISA assays were conducted as follows. Full length human and murine serum albumin at 10ug/ml in PBS were coated on Nunc Maxisorp plates overnight at 4° C. Plates were blocked in casein/PBS buffer. PKE Adnectins were allowed to bind over a 4-point concentration range of 0.032-4 uM for HSA and 0.008-1 uM for MSA. Bound Adnectin was detected by anti-His antibody conjugated with HRP (horseradish peroxidase) diluted 1:1500 in casein/PBS. Plates were developed with TMB substrate and absorbance read at 450 nm. Adnectins were binned as high, medium and low affinity binders based on the observed Ymax of the concentration response curves.

[18] = molecular target: T4, cynomolgus monkey serum albumin …; assay: SPR kinetics (Biacore, CM5): ligand '15ug/ml Cyno SA in Acetate 5.0' immobilised, Adnectin concentration series as analyte, 37 C, 1:1 binding fit; curve Fc=2-1 [panel Cyno SA]
Description: as §1

[19] = molecular target: T2, human serum albumin (HSA), full length; assay: SPR off-rate ratio to parent ADX_7016_A01, HSA, 25 C
Description: as §1, with “Measurements were conducted by SPR and ELISA. SPR” for “The SPR”, “length HSA or mouse” for “length human, mouse, rat and cynomolgus monkey serum”, “albumin was” for “albumin were”

[20] = molecular target: T4, cynomolgus monkey serum albumin …; assay: SPR kinetics (Biacore, CM5): ligand '15ug/ml CynoSA in Acetate5.0' immobilised, Adnectin concentration series as analyte, 37 C, 1:1 binding model; curve Fc=2-1 [panel Cyno SA]
Description: as §1

[21] = molecular target: T4, cynomolgus monkey serum albumin …; assay: SPR kinetics (Biacore, CM5): ligand '15ug/ml CynoSA in Acetate 5.0' immobilised, Adnectin concentration series as analyte, 37 C, 1:1 binding model; curve Fc=2-1 [panel Cyno SA]
Description: as §1

T4 sequence (A2V9Z4 25-608): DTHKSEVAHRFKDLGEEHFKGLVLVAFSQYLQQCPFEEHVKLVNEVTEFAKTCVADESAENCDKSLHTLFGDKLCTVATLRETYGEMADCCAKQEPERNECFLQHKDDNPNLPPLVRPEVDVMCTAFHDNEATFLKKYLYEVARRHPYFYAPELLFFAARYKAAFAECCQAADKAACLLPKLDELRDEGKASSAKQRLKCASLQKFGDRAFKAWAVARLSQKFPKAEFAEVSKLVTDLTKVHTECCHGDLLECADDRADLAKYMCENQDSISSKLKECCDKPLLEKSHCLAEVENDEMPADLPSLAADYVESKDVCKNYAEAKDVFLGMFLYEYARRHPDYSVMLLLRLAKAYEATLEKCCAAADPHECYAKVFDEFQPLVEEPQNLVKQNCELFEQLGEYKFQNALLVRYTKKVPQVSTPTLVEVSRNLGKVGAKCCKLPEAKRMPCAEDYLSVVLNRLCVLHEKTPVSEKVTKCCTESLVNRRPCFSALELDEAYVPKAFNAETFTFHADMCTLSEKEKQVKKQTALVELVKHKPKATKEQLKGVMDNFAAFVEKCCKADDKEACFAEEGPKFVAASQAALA
T3 sequence (P02770 25-608): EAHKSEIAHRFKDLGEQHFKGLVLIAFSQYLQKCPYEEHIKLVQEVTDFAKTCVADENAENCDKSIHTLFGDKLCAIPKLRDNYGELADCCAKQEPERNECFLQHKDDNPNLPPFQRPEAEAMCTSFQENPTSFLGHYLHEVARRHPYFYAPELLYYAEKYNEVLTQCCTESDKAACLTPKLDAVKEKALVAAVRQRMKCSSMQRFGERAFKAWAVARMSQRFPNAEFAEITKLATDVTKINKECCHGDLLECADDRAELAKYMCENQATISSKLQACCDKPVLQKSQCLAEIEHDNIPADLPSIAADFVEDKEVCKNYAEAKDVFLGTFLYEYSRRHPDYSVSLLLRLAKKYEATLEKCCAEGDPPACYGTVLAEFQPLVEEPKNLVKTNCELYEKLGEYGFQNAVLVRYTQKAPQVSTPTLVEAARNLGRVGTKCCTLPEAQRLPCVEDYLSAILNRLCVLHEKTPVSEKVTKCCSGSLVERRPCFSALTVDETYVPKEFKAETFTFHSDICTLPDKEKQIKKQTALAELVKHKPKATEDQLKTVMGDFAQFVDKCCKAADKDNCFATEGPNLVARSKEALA
T2 sequence (P02768 25-609): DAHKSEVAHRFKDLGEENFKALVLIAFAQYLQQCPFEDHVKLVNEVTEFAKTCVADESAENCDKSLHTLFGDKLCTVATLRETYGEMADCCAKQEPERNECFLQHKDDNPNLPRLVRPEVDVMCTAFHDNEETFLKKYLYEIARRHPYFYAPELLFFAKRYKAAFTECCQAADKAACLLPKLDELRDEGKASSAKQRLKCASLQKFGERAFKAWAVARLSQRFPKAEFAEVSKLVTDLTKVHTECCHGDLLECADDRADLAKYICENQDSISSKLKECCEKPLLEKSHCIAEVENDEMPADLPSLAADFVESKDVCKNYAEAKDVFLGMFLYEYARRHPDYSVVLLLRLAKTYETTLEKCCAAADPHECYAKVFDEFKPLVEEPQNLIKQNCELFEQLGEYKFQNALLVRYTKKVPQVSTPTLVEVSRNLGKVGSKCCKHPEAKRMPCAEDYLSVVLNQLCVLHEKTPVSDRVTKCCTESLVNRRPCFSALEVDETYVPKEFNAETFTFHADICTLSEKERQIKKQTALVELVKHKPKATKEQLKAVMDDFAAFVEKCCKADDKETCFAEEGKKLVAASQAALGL

Binder | koff [3] [s⁻¹] | HSA Binding (RU) [4] [RU] | MSA Binding (RU) [5] [RU] | Kd [6] [nM] | koff [6] [s⁻¹] | kon [6] [M⁻¹ s⁻¹] | Kd [7] [nM] | koff [7] [s⁻¹] | kon [7] [M⁻¹ s⁻¹] | Kd [8] [nM] | koff [8] [s⁻¹] | kon [8] [M⁻¹ s⁻¹] | Kd [9] [nM] | koff [9] [s⁻¹] | kon [9] [M⁻¹ s⁻¹] | koff [10] [s⁻¹] | MSA kd/Parent kd [16] | MSA DB ELISA YMIN OBS (OD450) [17] [OD450] | HSA kd/Parent kd [19] | also measured
ADX_6734_A02 (I43A/Y44E) (designed binder) MGVSDVPRDLEVVAATPTSLLISWDAPAVTVRYYRITYGREVQKYSDLGPLYAEQEFTVPGSKSTATISGLKPGVDYTITVYAVTGSGESPASSKPISINYRTEIDKPSQHHHHHH | – | – | – | – | – | – | – | – | – | – | – | – | – | – | – | – | – | – | – | MSA DB ELISA (OD450) Ymax obs [1]: 100; MSA DB ELISA (OD450) Ymin obs [1]: 3
ADX_7016_A01 (parent PKE2 Adnectin) (designed binder, N-terminal Met may be cleaved; also called 2629_E06; ADX_2629_E06) MGVSDVPRDLEVVAATPTSLLISWDAPAVTVRYYRITYGREVQKYSDLGPLYIYQEFTVPGSKSTATISGLKPGVDYTITVYAVTGSGESPASSKPISINYRTEIDKPSQHHHHHH | 0.000269 | 54 | 95 | 6.2 | 0.000378 | 61200 | 2.8 | 0.000668 | 237000 | 8 | 0.00143 | 180000 | 4.4 | 0.000391 | 89400 | 0.000428 | – | – | – | koff [2]: 0.000668 s⁻¹; kon [2]: 237000 M⁻¹ s⁻¹; koff [11]: 0.000378 s⁻¹; kon [11]: 61200 M⁻¹ s⁻¹; Kd [12]: 3 to 6 nM; koff [13]: 0.00143 s⁻¹; kon [13]: 180000 M⁻¹ s⁻¹; Kd [14]: 4.38 nM; koff [14]: 0.000391 s⁻¹; kon [14]: 89400 M⁻¹ s⁻¹; Kd [15]: 3 to 6 nM
ADX_7016_C03 (Y44Q) (designed binder, Full His6-tagged entry; also called 6727_B03) MGVSDVPRDLEVVAATPTSLLISWDAPAVTVRYYRITYGREVQKYSDLGPLYIQQEFTVPGSKSTATISGLKPGVDYTITVYAVTGSGESPASSKPISINYRTEIDKPSQHHHHHH | 0.0214 | 14 | 33 | 889 | 0.0285 | 32100 | 265 | 0.0305 | 115000 | 1340 | 0.119 | 89100 | 1080 | 0.0444 | 41200 | 0.0179 | 41.9 | 1 | 79.4 | Kd [18]: 1080 nM; koff [18]: 0.0444 s⁻¹; kon [18]: 41200 M⁻¹ s⁻¹

More lines, in order of falling Kd [6], values ahead:

koff [3] [s⁻¹] | HSA Binding (RU) [4] [RU] | MSA Binding (RU) [5] [RU] | Kd [6] [nM] | koff [6] [s⁻¹] | kon [6] [M⁻¹ s⁻¹] | Kd [7] [nM] | koff [7] [s⁻¹] | kon [7] [M⁻¹ s⁻¹] | Kd [8] [nM] | koff [8] [s⁻¹] | kon [8] [M⁻¹ s⁻¹] | Kd [9] [nM] | koff [9] [s⁻¹] | kon [9] [M⁻¹ s⁻¹] | koff [10] [s⁻¹] | MSA kd/Parent kd [16] | MSA DB ELISA YMIN OBS (OD450) [17] [OD450] | HSA kd/Parent kd [19] | Binder | also measured
0.00815 | 25 | 30 | 666 | 0.0161 | 24200 | 502 | 0.0343 | 68400 | 1130 | 0.0558 | 49400 | 1430 | 0.171 | 119000 | 0.0248 | 57.8 | 1 | 30.3 | ADX_7016_E02 (L38T) (designed binder, Full His6-tagged entry; also called 6727_E08) MGVSDVPRDLEVVAATPTSLLISWDAPAVTVRYYRITYGREVQKYSDTGPLYIYQEFTVPGSKSTATISGLKPGVDYTITVYAVTGSGESPASSKPISINYRTEIDKPSQHHHHHH | Kd [21]: 1430 nM; koff [21]: 0.171 s⁻¹; kon [21]: 119000 M⁻¹ s⁻¹
0.0015 | 33 | 64 | 83.7 | 0.0032 | 38200 | 26.8 | 0.00629 | 235000 | 104 | 0.0346 | 331000 | 68.1 | 0.00426 | 62500 | 0.00213 | 5 | – | 5.6 | ADX_7016_G01 (Y44S) (designed binder, Full His6-tagged entry; also called 6727_G02) MGVSDVPRDLEVVAATPTSLLISWDAPAVTVRYYRITYGREVQKYSDLGPLYISQEFTVPGSKSTATISGLKPGVDYTITVYAVTGSGESPASSKPISINYRTEIDKPSQHHHHHH | Kd [20]: 68.1 nM; koff [20]: 0.00426 s⁻¹; kon [20]: 62500 M⁻¹ s⁻¹
